According to patent US20160272683A1 (Novo Nordisk, published 2016):
Numbered stars: 1 amine (or outer) side, 2 acyl side, 3 side chain; on linkers, the order of the positions; unused ones are H or OH. * marks the point of attachment. C20 diacid = O=C(O)CCCCCCCCCCCCCCCCCCC(=O)*; γGlu = O=C(O)[C@H](CCC(=O)[*:2])N[*:1]

T1: human calcitonin receptor (human, UniProt P30988 25-474)
T1 sequence (looked up): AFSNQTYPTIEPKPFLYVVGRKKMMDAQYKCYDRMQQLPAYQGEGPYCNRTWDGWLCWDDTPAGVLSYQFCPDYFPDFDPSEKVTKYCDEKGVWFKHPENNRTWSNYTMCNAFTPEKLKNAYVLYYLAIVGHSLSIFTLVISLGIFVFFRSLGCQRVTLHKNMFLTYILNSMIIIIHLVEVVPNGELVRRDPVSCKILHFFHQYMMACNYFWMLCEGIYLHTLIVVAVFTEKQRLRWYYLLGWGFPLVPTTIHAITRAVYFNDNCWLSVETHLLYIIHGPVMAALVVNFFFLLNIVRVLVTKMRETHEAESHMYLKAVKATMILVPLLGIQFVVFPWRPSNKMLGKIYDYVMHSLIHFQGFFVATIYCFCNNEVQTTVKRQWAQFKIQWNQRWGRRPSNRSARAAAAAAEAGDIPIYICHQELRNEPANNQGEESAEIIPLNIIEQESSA

T2: human amylin 3(a) receptor (human calcitonin receptor co-expressed with RAMP-3) (human, UniProt P30988 25-474; O60896 24-148, limits assumed)
T2 sequence (looked up) 1: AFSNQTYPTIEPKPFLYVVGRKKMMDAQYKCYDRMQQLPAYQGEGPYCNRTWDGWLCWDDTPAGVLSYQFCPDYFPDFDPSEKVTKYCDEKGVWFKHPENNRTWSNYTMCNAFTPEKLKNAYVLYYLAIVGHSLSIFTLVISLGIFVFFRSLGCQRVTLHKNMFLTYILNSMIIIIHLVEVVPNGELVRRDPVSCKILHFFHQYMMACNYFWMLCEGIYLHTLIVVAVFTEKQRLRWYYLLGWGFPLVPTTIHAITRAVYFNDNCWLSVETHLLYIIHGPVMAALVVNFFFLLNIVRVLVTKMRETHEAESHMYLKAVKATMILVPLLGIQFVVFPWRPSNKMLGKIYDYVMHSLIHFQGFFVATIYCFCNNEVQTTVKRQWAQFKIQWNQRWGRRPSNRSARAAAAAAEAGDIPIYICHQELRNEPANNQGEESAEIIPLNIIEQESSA
T2 sequence (looked up) 2: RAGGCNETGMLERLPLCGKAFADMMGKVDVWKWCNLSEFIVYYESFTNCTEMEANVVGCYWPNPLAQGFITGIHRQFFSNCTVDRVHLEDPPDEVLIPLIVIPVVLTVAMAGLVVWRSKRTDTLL


Key:
[1] = biological target: T1, human calcitonin receptor; assay: cell-based or functional assay
[2] = biological target: T2, human amylin 3(a) receptor (human …); assay: cell-based or functional assay

Binder | hCTR funct. EC50 (pM) [1] [pM] | hAmylin-R funct. EC50 (pM) [2] [pM]
{C20 diacid-γGlu}-ASGLSTAALGRLSQELHELQTYPRTETGSQTY-NH2 (SMILES CC(C)C[C@H](NC(=O)CNC(=O)[C@H](CO)NC(=O)[C@H](C)NC(=O)CC[C@H](NC(=O)CCCCCCCCCCCCCCCCCCC(=O)O)C(=O)O)C(=O)N[C@@H](CO)C(=O)N[C@H](C(=O)N[C@@H](C)C(=O)N[C@@H](C)C(=O)N[C@@H](CC(C)C)C(=O)NCC(=O)N[C@@H](CCCNC(=N)N)C(=O)N[C@@H](CC(C)C)C(=O)N[C@@H](CO)C(=O)N[C@@H](CCC(N)=O)C(=O)N[C@@H](CCC(=O)O)C(=O)N[C@@H](CC(C)C)C(=O)N[C@@H](Cc1c[nH]cn1)C(=O)N[C@@H](CCC(=O)O)C(=O)N[C@@H](CC(C)C)C(=O)N[C@@H](CCC(N)=O)C(=O)N[C@H](C(=O)N[C@@H](Cc1ccc(O)cc1)C(=O)N1CCC[C@H]1C(=O)N[C@@H](CCCNC(=N)N)C(=O)N[C@H](C(=O)N[C@@H](CCC(=O)O)C(=O)N[C@H](C(=O)NCC(=O)N[C@@H](CO)C(=O)N[C@@H](CCC(N)=O)C(=O)N[C@H](C(=O)N[C@@H](Cc1ccc(O)cc1)C(N)=O)[C@@H](C)O)[C@@H](C)O)[C@@H](C)O)[C@@H](C)O)[C@@H](C)O) [[N-terminal(C20 diacid-gGlu), des1, 4G, 15Q, 21Q, 23Y, 30S, 31Q, 32T, 33Y]mimylin] | 25 | 37
{C20 diacid-γGlu}-ASQLSTAVLGRLSQELHELQTYPRTETGSQTY-NH2 (SMILES CC(C)C[C@H](NC(=O)[C@H](CCCNC(=N)N)NC(=O)CNC(=O)[C@H](CC(C)C)NC(=O)[C@@H](NC(=O)[C@H](C)NC(=O)[C@@H](NC(=O)[C@H](CO)NC(=O)[C@H](CC(C)C)NC(=O)[C@H](CCC(N)=O)NC(=O)[C@H](CO)NC(=O)[C@H](C)NC(=O)CC[C@H](NC(=O)CCCCCCCCCCCCCCCCCCC(=O)O)C(=O)O)[C@@H](C)O)C(C)C)C(=O)N[C@@H](CO)C(=O)N[C@@H](CCC(N)=O)C(=O)N[C@@H](CCC(=O)O)C(=O)N[C@@H](CC(C)C)C(=O)N[C@@H](Cc1c[nH]cn1)C(=O)N[C@@H](CCC(=O)O)C(=O)N[C@@H](CC(C)C)C(=O)N[C@@H](CCC(N)=O)C(=O)N[C@H](C(=O)N[C@@H](Cc1ccc(O)cc1)C(=O)N1CCC[C@H]1C(=O)N[C@@H](CCCNC(=N)N)C(=O)N[C@H](C(=O)N[C@@H](CCC(=O)O)C(=O)N[C@H](C(=O)NCC(=O)N[C@@H](CO)C(=O)N[C@@H](CCC(N)=O)C(=O)N[C@H](C(=O)N[C@@H](Cc1ccc(O)cc1)C(N)=O)[C@@H](C)O)[C@@H](C)O)[C@@H](C)O)[C@@H](C)O) [[N-terminal(C20 diacid-gGlu), des1, 4Q, 9V, 15Q, 21Q, 23Y, 30S, 31Q, 32T, 33Y]mimylin] | 63 | 62
{C20 diacid-γGlu}-EASQLSTAVLGRLSQELHELQTYPRTGTGSGTY-NH2 (SMILES CC(C)C[C@H](NC(=O)[C@H](CCCNC(=N)N)NC(=O)CNC(=O)[C@H](CC(C)C)NC(=O)[C@@H](NC(=O)[C@H](C)NC(=O)[C@@H](NC(=O)[C@H](CO)NC(=O)[C@H](CC(C)C)NC(=O)[C@H](CCC(N)=O)NC(=O)[C@H](CO)NC(=O)[C@H](C)NC(=O)[C@H](CCC(=O)O)NC(=O)CC[C@H](NC(=O)CCCCCCCCCCCCCCCCCCC(=O)O)C(=O)O)[C@@H](C)O)C(C)C)C(=O)N[C@@H](CO)C(=O)N[C@@H](CCC(N)=O)C(=O)N[C@@H](CCC(=O)O)C(=O)N[C@@H](CC(C)C)C(=O)N[C@@H](Cc1c[nH]cn1)C(=O)N[C@@H](CCC(=O)O)C(=O)N[C@@H](CC(C)C)C(=O)N[C@@H](CCC(N)=O)C(=O)N[C@H](C(=O)N[C@@H](Cc1ccc(O)cc1)C(=O)N1CCC[C@H]1C(=O)N[C@@H](CCCNC(=N)N)C(=O)N[C@H](C(=O)NCC(=O)N[C@H](C(=O)NCC(=O)N[C@@H](CO)C(=O)NCC(=O)N[C@H](C(=O)N[C@@H](Cc1ccc(O)cc1)C(N)=O)[C@@H](C)O)[C@@H](C)O)[C@@H](C)O)[C@@H](C)O) [[N-terminal(C20 diacid-gGlu), 4Q, 9V, 15Q, 21Q, 23Y, 27G, 30S, 31G, 32T, 33Y]mimylin] | 56 | 66
{C20 diacid-γGlu}-ASGLSTAALGRLSTELHELETYPRTETGSGTY-NH2 (SMILES CC(C)C[C@H](NC(=O)CNC(=O)[C@H](CO)NC(=O)[C@H](C)NC(=O)CC[C@H](NC(=O)CCCCCCCCCCCCCCCCCCC(=O)O)C(=O)O)C(=O)N[C@@H](CO)C(=O)N[C@H](C(=O)N[C@@H](C)C(=O)N[C@@H](C)C(=O)N[C@@H](CC(C)C)C(=O)NCC(=O)N[C@@H](CCCNC(=N)N)C(=O)N[C@@H](CC(C)C)C(=O)N[C@@H](CO)C(=O)N[C@H](C(=O)N[C@@H](CCC(=O)O)C(=O)N[C@@H](CC(C)C)C(=O)N[C@@H](Cc1c[nH]cn1)C(=O)N[C@@H](CCC(=O)O)C(=O)N[C@@H](CC(C)C)C(=O)N[C@@H](CCC(=O)O)C(=O)N[C@H](C(=O)N[C@@H](Cc1ccc(O)cc1)C(=O)N1CCC[C@H]1C(=O)N[C@@H](CCCNC(=N)N)C(=O)N[C@H](C(=O)N[C@@H](CCC(=O)O)C(=O)N[C@H](C(=O)NCC(=O)N[C@@H](CO)C(=O)NCC(=O)N[C@H](C(=O)N[C@@H](Cc1ccc(O)cc1)C(N)=O)[C@@H](C)O)[C@@H](C)O)[C@@H](C)O)[C@@H](C)O)[C@@H](C)O)[C@@H](C)O) [[N-terminal(C20 diacid-gGlu), des1, 4G, 15T, 21E, 23Y, 30S, 31G, 32T, 33Y]mimylin] | 18 | 54
{C20 diacid-γGlu}-ASELSTAVLGRLSQELHELQTYPRTETGSGTY-NH2 (SMILES CC(C)C[C@H](NC(=O)[C@H](CCCNC(=N)N)NC(=O)CNC(=O)[C@H](CC(C)C)NC(=O)[C@@H](NC(=O)[C@H](C)NC(=O)[C@@H](NC(=O)[C@H](CO)NC(=O)[C@H](CC(C)C)NC(=O)[C@H](CCC(=O)O)NC(=O)[C@H](CO)NC(=O)[C@H](C)NC(=O)CC[C@H](NC(=O)CCCCCCCCCCCCCCCCCCC(=O)O)C(=O)O)[C@@H](C)O)C(C)C)C(=O)N[C@@H](CO)C(=O)N[C@@H](CCC(N)=O)C(=O)N[C@@H](CCC(=O)O)C(=O)N[C@@H](CC(C)C)C(=O)N[C@@H](Cc1c[nH]cn1)C(=O)N[C@@H](CCC(=O)O)C(=O)N[C@@H](CC(C)C)C(=O)N[C@@H](CCC(N)=O)C(=O)N[C@H](C(=O)N[C@@H](Cc1ccc(O)cc1)C(=O)N1CCC[C@H]1C(=O)N[C@@H](CCCNC(=N)N)C(=O)N[C@H](C(=O)N[C@@H](CCC(=O)O)C(=O)N[C@H](C(=O)NCC(=O)N[C@@H](CO)C(=O)NCC(=O)N[C@H](C(=O)N[C@@H](Cc1ccc(O)cc1)C(N)=O)[C@@H](C)O)[C@@H](C)O)[C@@H](C)O)[C@@H](C)O) [[N-terminal(C20 diacid-gGlu), des1, 9V, 15Q, 21Q, 23Y, 30S, 31G, 32T, 33Y]mimylin] | 60 | 76
{C20 diacid-γGlu}-ASGLSTAALGRLSEELHELQTYPRTETGSGTY-NH2 (SMILES CC(C)C[C@H](NC(=O)CNC(=O)[C@H](CO)NC(=O)[C@H](C)NC(=O)CC[C@H](NC(=O)CCCCCCCCCCCCCCCCCCC(=O)O)C(=O)O)C(=O)N[C@@H](CO)C(=O)N[C@H](C(=O)N[C@@H](C)C(=O)N[C@@H](C)C(=O)N[C@@H](CC(C)C)C(=O)NCC(=O)N[C@@H](CCCNC(=N)N)C(=O)N[C@@H](CC(C)C)C(=O)N[C@@H](CO)C(=O)N[C@@H](CCC(=O)O)C(=O)N[C@@H](CCC(=O)O)C(=O)N[C@@H](CC(C)C)C(=O)N[C@@H](Cc1c[nH]cn1)C(=O)N[C@@H](CCC(=O)O)C(=O)N[C@@H](CC(C)C)C(=O)N[C@@H](CCC(N)=O)C(=O)N[C@H](C(=O)N[C@@H](Cc1ccc(O)cc1)C(=O)N1CCC[C@H]1C(=O)N[C@@H](CCCNC(=N)N)C(=O)N[C@H](C(=O)N[C@@H](CCC(=O)O)C(=O)N[C@H](C(=O)NCC(=O)N[C@@H](CO)C(=O)NCC(=O)N[C@H](C(=O)N[C@@H](Cc1ccc(O)cc1)C(N)=O)[C@@H](C)O)[C@@H](C)O)[C@@H](C)O)[C@@H](C)O)[C@@H](C)O) [[N-terminal(C20 diacid-gGlu), des1, 4G, 15E, 21Q, 23Y, 30S, 31G, 32T, 33Y]mimylin] | 21 | 36
{C20 diacid}-ASGLSTAALGRLSQELHELQTYPRTETGSGTY-NH2 (SMILES CC(C)C[C@H](NC(=O)CNC(=O)[C@H](CO)NC(=O)[C@H](C)NC(=O)CCCCCCCCCCCCCCCCCCC(=O)O)C(=O)N[C@@H](CO)C(=O)N[C@H](C(=O)N[C@@H](C)C(=O)N[C@@H](C)C(=O)N[C@@H](CC(C)C)C(=O)NCC(=O)N[C@@H](CCCNC(=N)N)C(=O)N[C@@H](CC(C)C)C(=O)N[C@@H](CO)C(=O)N[C@@H](CCC(N)=O)C(=O)N[C@@H](CCC(=O)O)C(=O)N[C@@H](CC(C)C)C(=O)N[C@@H](Cc1c[nH]cn1)C(=O)N[C@@H](CCC(=O)O)C(=O)N[C@@H](CC(C)C)C(=O)N[C@@H](CCC(N)=O)C(=O)N[C@H](C(=O)N[C@@H](Cc1ccc(O)cc1)C(=O)N1CCC[C@H]1C(=O)N[C@@H](CCCNC(=N)N)C(=O)N[C@H](C(=O)N[C@@H](CCC(=O)O)C(=O)N[C@H](C(=O)NCC(=O)N[C@@H](CO)C(=O)NCC(=O)N[C@H](C(=O)N[C@@H](Cc1ccc(O)cc1)C(N)=O)[C@@H](C)O)[C@@H](C)O)[C@@H](C)O)[C@@H](C)O)[C@@H](C)O) [[N-terminal(C20 diacid), des1, 4G, 15Q, 21Q, 23Y, 30S, 31G, 32T, 33Y]mimylin] | 24 | 22
